Results on 4 molecules are retold here after patent US20160002325A1 (VACCINEX, published 2016).

Test [1] concerns the target T1, human CXCL13 (human, UniProt O43927 23-109).
T1 construct: Recombinant protein bought from Peprotech (#300-47); In some assays native human CXCL13 from supernatant of IFN-gamma-stimulated THP-1 cells was used; this is said in the assay field; also called recombinant human CXCL13; rhuCXCL13
T1 sequence: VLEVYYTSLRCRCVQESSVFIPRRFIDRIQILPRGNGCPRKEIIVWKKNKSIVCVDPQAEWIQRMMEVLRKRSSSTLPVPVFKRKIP
Briefly: SPR (Biacore), recombinant human CXCL13; printed as Affinity (Biacore), nM. A general note: Surface plasmon resonance follows binding to a sensor surface in real time, without labels.

Test [2] concerns the target T2, mouse CXCL13 (mouse, UniProt O55038 22-109).
T2 construct: Recombinant protein bought from Peprotech (#250-24); In some assays native mouse CXCL13 from organ extracts of TNF-alpha transgenic mice was used; this is said in the assay field; also called recombinant mouse CXCL13; rmuCXCL13
T2 sequence: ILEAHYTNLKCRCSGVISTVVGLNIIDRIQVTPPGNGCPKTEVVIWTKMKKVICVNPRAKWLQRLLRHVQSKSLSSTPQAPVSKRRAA
Briefly: SPR (Biacore), recombinant mouse CXCL13; printed as Affinity (Biacore), nM.

Test [3] addresses T1, human CXCL13. Description: SPR (BIACORE), recombinant human CXCL13, methods similar to Example 1; printed as Affinity, nM. As to the method: (§1) Chemokines were immobilized on a C1 chip in Acetate buffer (pH=5) with human CXCL13 at 1 μg/ml, mouse CXCL13 at 0.3 μg/ml, and negative control SDF-1α at 0.5 μg/ml. 3D2 and 3C9 were diluted in HBS-EP buffer by two-fold from 100 nM to 0.78 nM and from 38 nM to […].

Test [4] has as its target T2, mouse CXCL13. Description: SPR (BIACORE), recombinant mouse CXCL13, methods similar to Example 1; printed as Affinity, nM. How it is done:
as §1

Test [5] has as its target T2, mouse CXCL13. Description: SPR (BIACORE), recombinant chemokine immobilized on C1 chip, antibody in solution; printed as Affinity, nM. As to the method: as §1
Test [6] concerns the target T1, human CXCL13. The description is as above. As to the method:
as §1

The target of test [7] is T1, human CXCL13. Description: Specificity ELISA on plate-coated recombinant human CXCL13, OD 450/570, four-parameter sigmoidal fit. As to the method:
(§2) Hybridoma clones were screened by ELISA for binding to human and mouse CXCL13 protein. ELISA plates were coated with about 100 nM of human (Peprotech: #300-47) or mouse (Peprotech: #250-24) CXCL13 protein overnight at room temperature (RT). […] The plates were washed and developed with tetramethylbenzidine (TMB) substrate reagents A and B (BD Biosciences: #555214) mixed at equal volumes for 15 minutes in the dark and read at 450/570 wavelengths. Two positive hybridoma clones, labelled “3D2” and “3C9”, both mouse IgG1 antibodies, were selected for further characterization.
(§3) Specificity of the hybridoma-produced mouse anti-human antibodies, 3D2 and 3C9, was assessed by ELISA (as described above) on a panel that included recombinant chemokines (Peprotech: mouse and human CXCL13, human IL-8/CXCL8 (#200-08), human IP-10/CXCL10 (#200-10), human MIG/CXCL9 (#300-26), human SDF-1alpha/CXCL12 (#300-28A) and cynomolgus monkey CXCL13) as well as several non-specific control antigens (recombinant human C35, streptavidin (Thermo: #21122), bovine serum albumin (BSA) (SeraCore: #AP-4510-01)), human serum albumin (HAS) (Sigma: #A8763), insulin (Gibco: #12585-014), and hemoglobin (Sigma: #H7379).
For orientation: ELISA stands for enzyme-linked immunosorbent assay.

Test [8] addresses T2, mouse CXCL13. Briefly: Specificity ELISA on plate-coated recombinant mouse CXCL13, OD 450/570, four-parameter sigmoidal fit. As to the method: as §2, §3
Test [9] concerns the target T1, human CXCL13. Briefly: Specificity ELISA on recombinant human CXCL13 coated at 100 nM, OD 450/570, four-parameter sigmoidal fit. As to the method:
(§4) Each data point represents mean of triplicate measurements. EC50 values were calculated from four-parameter sigmoidal curve fit (R² for the curves that produced EC50 values were 0.99).

In test [10] the target is T3, cynomolgus monkey CXCL13 (cynomolgus monkey, UniProt O43927 23-104 (human entry), limits assumed).
T3 construct: Recombinant; also called recombinant cynomolgus monkey CXCL13
T3 chain: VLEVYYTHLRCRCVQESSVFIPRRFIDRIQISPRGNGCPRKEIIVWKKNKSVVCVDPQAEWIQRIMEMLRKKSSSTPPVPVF
Briefly: Specificity ELISA on plate-coated recombinant cynomolgus monkey CXCL13, OD 450/570, four-parameter sigmoidal fit. As to the method: as §2, §3

The target of test [11] is T3, cynomolgus monkey CXCL13. Description: Specificity ELISA on recombinant cynomolgus monkey CXCL13 coated at 100 nM, OD 450/570, four-parameter sigmoidal fit. How it is done: as §4
Test [12] concerns the target T2, mouse CXCL13. Briefly: Capture Epitope Competition ELISA: native mouse CXCL13 captured with MAb 470; unlabeled competitor inhibits binding of 3.3 nM biotin-3D2; four-parameter fit. As to the method: For mouse ELISA, mouse CXCL13 (1:40 dilution of TNF-Tg organ extract) was captured with 33 nM MAb 470 and detected with 3.3 nM biotin-3D2. Each data point represents an average of duplicate measurements from one of at least three independent experiments. […] Curves shown in FIGS. 17A-B were fitted using four-parameter sigmoidal curve fit (R²=0.99).

For test [13], the target named is T1, human CXCL13. Description: Capture Epitope Competition ELISA: recombinant human CXCL13 captured with MAb 801; unlabeled 3D2 inhibits binding of biotin-3C9; percent maximal response, four-parameter fit. As to the method: (§5) Capture Epitope Competition ELISA was used to assess 3D2 binding to native human and mouse CXCL13. In this assay, native human CXCL13 was obtained from supernatants collected from human IFN-gamma-stimulated THP-1 cells. […] The plate was then incubated with biotinylated 3C9 in the presence of various amounts of unlabeled 3D2. […] As evident from FIG. 3A, 3D2 strongly bound to both native and recombinant human CXCL13 producing statistically similar EC50 values.

The target of test [14] is T2, mouse CXCL13. Briefly: Capture Epitope Competition ELISA: recombinant mouse CXCL13 captured with MAb 470; unlabeled 3D2 inhibits binding of biotin-3D2; percent maximal response, four-parameter fit. How it is done:
(§6) Mouse CXCL13-rich organ extracts from TNF-alpha transgenic mice were used as sources of native mouse CXCL13. Mouse CXCL13 (1:40 dilution of TNF-Tg organ extract or 0.5 nM rmuCXCL13) was captured with 33 nM MAb 470 and detected with 3.3 nM biotin-3D2. The chemokine from the extracts (and recombinant mouse CXCL13 which was used as a control) was captured on the ELISA plate by MAb 470. The plate was then incubated with biotinylated 3D2 in the presence of various amounts of unlabeled 3D2.

In test [15] the target is T1, human CXCL13. Briefly: Capture Epitope Competition ELISA: native human CXCL13 (THP-1 supernatant) captured with MAb 801; unlabeled 3D2 inhibits binding of biotin-3C9; percent maximal response, four-parameter fit. How it is done:
as §5

Test [16] has as its target T2, mouse CXCL13. Briefly: Capture Epitope Competition ELISA: native mouse CXCL13 (TNF-Tg organ extract) captured with MAb 470; unlabeled 3D2 inhibits binding of biotin-3D2; percent maximal response, four-parameter fit. How it is done:
as §6

The target of test [17] is T1, human CXCL13. Description: Specificity ELISA on recombinant human CXCL13 coated at 100 nM, OD 450/570, four-parameter sigmoidal fit. This is another data set of the same source.
Test [18] addresses T3, cynomolgus monkey CXCL13. Description: Specificity ELISA on recombinant cynomolgus monkey CXCL13 coated at 100 nM, OD 450/570, four-parameter sigmoidal fit.
For test [19], the target named is T2, mouse CXCL13. Description: Specificity ELISA on recombinant mouse CXCL13 coated at 100 nM, OD 450/570, four-parameter sigmoidal fit. As to the method:
For specificity ELISA, recombinant human, cynomolgus monkey, and mouse CXCL13 were each coated at 100 nM. […] The data points for each chemokine represents the mean of triplicate measurements. EC50 values were calculated from four-parameter sigmoidal curve fit (R² for the curves that produced EC50 values were 0.99).

Test [20] concerns the target T2, mouse CXCL13. The test is described as above. How it is done: as §4
This is another data set of the same source.

B1: 3D2 (antibody, mouse IgG1, V domains shown)
VH: EVQLQESGPGILQPSQTLNLTCSFSGFSLSTFGMGVGWIRQPSGKGLEWLAHIWWDDDRRYNPALKSRLTISKETSKNQVFLKIANVDTADTATYYCTRIAGYYGSRDWFAYWGQGTTVTVSS
VL: DIVLTQSPASLAVSLGQRATISCRASESVDNSGISFMHWYQQKPGQPPKLLIFRASDLESGIPARFSGSGSRTDFTLTVNPVETDDVATYFCQQSNKDPWTFGGGTKLEIK
notes: Hybridoma-produced mouse IgG1; also called mouse anti-human CXCL13 antibody 3D2; H1609/L0293
On to B1, for which the Kd – broadly, the free concentration of one partner at which half of the binding sites on the other are occupied at equilibrium, for simple one-to-one binding – in [1] stood at 13 nM; in [2], 159 nM; in test [3], 13 nM; in [4], 159 nM; in test [5] it was 159 nM; in test [6], 12.9 nM. Moreover, the EC50 (in general, the midpoint of the concentration-response curve) in test [7] was determined as 1.1 nM; in test [8], 0.98 nM; in test [9], 0.2 nM; in test [10] it was 0.8 nM; in [11], 8.9 nM; in test [12], 11.2 nM. For the same molecule, the EC50 in test [13] is 0.46 nM; in test [14], 12.5 nM; in test [15], 0.13 nM; in test [16], 11.2 nM.

B2: MAb 1476 (antibody, V domains shown)
VH: EVQLQESGPGILQPSQTLNLTCSFSGFSLSTFGMGVGWIRQPSGKGLEWLAHIWWDDDRRYNPALKSRLTISKETSKNQVFLKIANVDTADTATYYCTRIAGYYGSRDWFAYWGQGTTVTVSS
VL: DIVLTQSPASLAVSLGQRATISCRASESVDNSGISFMHWYQQKPGQPPKLLIFRASDLESGIPARFSGSGSRTDFTLTVNPVETDDVATYFCQQSNKDPWTFGGGTKLEIK
notes: Chimeric IgG1: 3D2 variable domains (H1609/L0293) on human gamma 1 heavy chain constant and human kappa constant; also called chimeric 3D2
As to B2, the Kd in [1] came out at 11.4 nM. Further, the EC50 in [17] stood at 0.07 nM; in [18] it was 0.51 nM.

B3: MAb 5080 (antibody, human IgG1, V domains shown)
VH: QVQLQESGPGLVKPSETLSLTCTVSGFSLSTFGMGVGWIRQPPGKGLEWIAHIWWDDDRRYNPALKSRVTISKDTSKNQFSLKLSSVTAADTAVYYCARIAGYYGSRDWFAYWGQGTTVTVSS
VL: DIQMTQSPSSLSASVGDRVTITCRASESVDNSGISFMHWYQQKPGKAPKLLIFRASDLESGVPSGFSGSGSRTDFTLTISSLQPEDFATYYCQQSNKDPWTFGQGTKLEIK
notes: also called H2177/L5055
Turning to B3, the results for the Kd in [1] and in [2] were 14.5 nM and 59.2 nM, respectively. The EC50 is 0.03 nM in [17], 2.1 nM in [19], 0.06 nM in test [18] and 24.3 nM in [12].

B4: MAb 5378 (antibody, V domains shown)
VH: QVQLQESGPGLVKPSETLSLTCTVSGFSLSTFGMGVGWIRQPPGKGLEWIAHIWWDDDRRYNPALKSRVTISKDTSKNQFSLKLSSVTAADTAVYYCARIAGYYGSRDWFAYWGQGTTVTVSS
VL: DIQMTQSPSSLSASVGDRVTITCRASESVDNMGISFMHWYQQKPGKAPKLLIFRASDLESGVPSRFSGSGSGTDFTLTISSLQPEDFATYYCQQSNKDPWTFGQGTKLEIK
notes: also called H5188/L5153
B4: the Kd in test [3] was 4.5 nM; in test [4] it was 4.2 nM. In addition, the results for the EC50 in test [9], in test [20] and in test [11] were 0.2 nM, 3.4 nM and 0.3 nM, respectively.
